One assay relates to P. aeruginosa 6294 (O6). Nature of the assay: Acute pneumonia model in mice, strain 6294. It counts as in vivo, Pseudomonas aeruginosa. As to the method:
(§1) Antibodies or PBS were administered 24 hours before infection in each model. P. aeruginosa acute pneumonia, keratitis, and thermal injury infection models were performed as described (DiGiandomenico, A., et al., Proc Natl Acad Sci USA 104, 4624-4629 (2007)), with modifications. In the acute pneumonia model, BALB/c mice (The Jackson Laboratory) were infected with P. aeruginosa strains suspended in a 0.05 ml inoculum. In the thermal injury model, CF-1 mice (Charles River) received a 10% total body surface area burn with a metal brand heated to 92° C. for 10 seconds. Animals were infected subcutaneously with P. aeruginosa strain 6077 at the indicated dose. For organ burden experiments, acute pneumonia was induced in mice followed by harvesting of lungs, spleens, and kidneys 24 hours post-infection for determination of CFU.

The subject of assay [1] is P. aeruginosa 6206 (O11-ExoU+). Put plainly: Acute pneumonia model in mice, strain 6206. It counts as in vivo, Pseudomonas aeruginosa. Conditions: 6206; W4-RAD 0.2 mg/kg; monitored 120 hours; FIG. 21A. As for the experimental part: as §1
The subject of assay [2] is P. aeruginosa 6077 (O11-cytotoxic). Nature of the assay: Corneal infection (keratitis) model in mice, strain 6077. It counts as in vivo, Pseudomonas aeruginosa. The settings on record: C3H/HeN mice, IP dosing 16 hours prior to 6077 (1×10^6 CFU), FIG. 8H. As for the experimental part: as §1
Cam-003 and WapR-004 efficacy was next evaluated in a P. aeruginosa corneal infection model which emphasizes the pathogens ability to attach and colonize damaged tissue. […] FIG. 8 (H): The activity of anti-Psl and anti-PcrV monoclonal antibodies V2L2 was tested in a P. aeruginosa mouse ocular keratitis model. C3H/HeN mice were injected intraperitoneally (IP) with PBS or a control IgG1 antibody (R347) at 45 mg/kg or WapR-004 (α-Psl) at 5 mg/kg or V2L2 (α-PcrV) at 5 mg/kg, 16 hours prior to infection with 6077 (O11-cytotoxic−1×10^6 CFU) Immediately before infection, mice were anesthetized followed by initiation of three 1 mm scratches on the cornea and superficial stroma of one eye of each mouse using a 27-gauge needle under a dissection microscope, followed by topical application of P. aeruginosa 6077 strain in a 5 μl inoculum. Eyes were photographed at 48 hours post infection followed by corneal grading by visualization of eyes under a dissection microscope. Grading of corneal infection was performed as previously described by Preston et al. (Preston, M J., 1995, Infect. Immun. 63:3497). Briefly, infected eyes were graded 48 h after infection with strain 6077 by an investigator who was unaware of the animal treatments. The following grading scheme was used: grade 0, eye macroscopically identical to an uninfected eye; grade 1, faint opacity partially covering the pupil; grade 2, dense opacity covering the pupil; grade 3, dense opacity covering the entire pupil; grade 4, perforation of the cornea (shrinkage of the eyeball).

Assay [3] relates to P. aeruginosa serogroup 05 strain (PAO1.lux). Nature of the assay: Opsonophagocytic killing (OPK) assay with luminescent PAO1.lux, HL-60 cells and baby rabbit serum. Conditions: FIG. 10C, 11N-Q. It counts as cell-based, Pseudomonas aeruginosa. As for the experimental part:
This example describes the evaluation of prioritized human IgG1 antibodies to promote OPK of P. aeruginosa. […] OPK assays were performed as described in (DiGiandomenico, A., et al., Infect Immun 72, 7012-7021 (2004)), with modifications. Briefly, assays were performed in 96-well plates using 0.025 ml of each OPK component; P. aeruginosa strains; diluted baby rabbit serum; differentiated HL-60 cells; and monoclonal antibody. In some OPK assays, luminescent P. aeruginosa strains, which were constructed as described (Choi, K. H., et al., Nat Methods 2, 443-448 (2005))., were used. Luminescent OPK assays were performed as described above but with determination of relative luciferase units (RLUs) using a Perkin Elmer ENVISION Multilabel plate reader (Perkin Elmer).

Assay [4] deals with P. aeruginosa 6077 (exoU+). Put plainly: Rabbit red blood cell lysis inhibition assay with strain 6077. It counts as cell-based, Pseudomonas aeruginosa. Conditions: strain 6077; FIG. 12D-E. As for the experimental part:
Percent inhibition of cytotoxicity analysis was analysed for the parental V2L2 mAb, mAb166 (positive control) and R347 (negative control), where the antibodies were administered to cultured broncho-epithelial cell line A549 combined with log-phase P. aeruginosa strain 6077 (exoU+) at a MOI of approximately 10. A549 lysis was assayed by measuring released lactate dehydrogenase (LDH) activity and lysis in the presence of mAbs was compared to wells without mAb to determine percent inhibition. The V2L2 mAb, mAb166 (positive control) and R347 (negative control) were evaluated for their ability to prevent lysis of RBCs, where the antibodies were mixed with log-phase P. aeruginosa 6077 (exoU^+) and washed rabbit red blood cells (RBCs) and incubated for 2 hours at 37°. Intact RBCs were pelleted and the extent of lysis determined by measuring the OD405 of the cell-free supernatant. Lysis in the presence of anti-PcrV mAbs was compared to wells without mAb to determine percent inhibition.

The results in this text go back to patent publication US20150284450A1, “COMBINATION THERAPIES USING ANTI-PSEUDOMONAS PSL AND PCRV BINDING MOLECULES” (priority 2012, published 2015).

B1: WapR-004RAD: identical to WapR-004 except for substitution G98A of the VH; VH SEQ ID NO: 74, VL SEQ ID NO: 12 (antibody, V domains shown)
VH: EVQLLESGPGLVKPSETLSLTCNVAGGSISPYYWTWIRQPPGKGLELIGYIHSSGYTDYNPSLKSRVTISGDTSKKQFSLHVSSVTAADTAVYFCARADWDLLHALDIWGQGTLVTVSS
VL: EIVLTQSPSSLSTSVGDRVTITCRASQSIRSHLNWYQQKPGKAPKLLIYGASNLQSGVPSRFSGSGSGTDFTLTISSLQPEDFATYYCQQSYSFPLTFGGGTKLEIK
modifications: WapR-004RAD VH; WapR-004 & WarR-004RAD VL
As to B1, the “organ burden in lung, spleen and kidney” value in the assay on P. aeruginosa 6294 (O6) (2.5×10^7 CFU 6294, Bs2-/Bs3-V2L2 0.7 mg/kg, V2L2 or W4-RAD 0.5 mg/kg, FIG. 23A) is given as “no effect on decreasing organ burden”. For the same molecule, the “survival effect, in words” value with P. aeruginosa 6294 (O6) (6294, bispecifics 0.28 mg/kg, V2L2 or W4-RAD 0.2 mg/kg, FIG. 24) is recorded as “did not affect survival”. For the same molecule, the animals survived entry in assay [1] is given as “Approximately 90%”. Moreover, the “bacterial CFU in total eye homogenates compared to R347 control” value in assay [2] is “reduced bacterial colony forming units (CFU) in total eye homogenates”. Besides, in assay [2] (graded 48 h after infection), the “corneal pathology compared to R347 control” value is recorded as “significantly less pathology”.

B2: Psl0225: lead optimized anti-Psl clone; VH SEQ ID NO:290, VL SEQ ID NO:291 (antibody, V domains shown)
VH: QVQLQESGPGLVKPSETLSLTCTVSGGSISPYYWTWIRQPPGKGLELIGYIHSSGYTDYNPSLKSRVTISGDTSKKQFSLKLSSVTAADTAVYYCARAMDIEPHALDIWGQGTMVTVSS
VL: DIQLTQSPSSLSASVGDRVTITCRASQSIRSHLNWYQQKPGKAPKLLIYGASNLQSGVPSRFSGSGSGTDFTLTISSLQPEDFATYYCQQSDDGFPNFGGGTKVEIK
modifications: Psl0225-Germline VH; Psl0225-Germline VL
B2: in assay [3], the “OPK activity of lead optimized anti-Psl clones (basis of selection)” value (shortened to “OPK activity … (basis of selection)”) is “enhanced OPK activity”.

B3: Psl0588: lead optimized anti-Psl clone; VH SEQ ID NO:292, VL SEQ ID NO:293 (antibody, V domains shown)
VH: QVQLQESGPGLVKPSETLSLTCTVSGGSISPYYWTWIRQPPGKGLELIGYIHSSGYTDYNPSLKSRVTISGDTSKKQFSLKLSSVTAADTAVYYCARADDPFPGYLDIWGQGTMVTVSS
VL: DIQLTQSPSSLSASVGDRVTITCRASQSIRSHLNWYQQKPGKAPKLLIYGASNLQSGVPSRFSGSGSGTDFTLTISSLQPEDFATYYCQQSDTFPLKFGGGTKVEIK
modifications: Psl0588-Germline VH
As to B3, the “OPK activity … (basis of selection)” value in assay [3] is on record as “enhanced OPK activity”.

B4: Psl0337: lead optimized anti-Psl clone; VH SEQ ID NO:295, VL SEQ ID NO:296 (antibody, V domains shown)
VH: QVQLQESGPGLVKPSETLSLTCTVSGGSISPYYWTWIRQPPGKGLELIGYIHSSGYTDYNPSLKSRVTISGDTSKKQFSLKLSSVTAADTAVYYCARADWDHKHALDIWGQGTMVTVSS
VL: DIQLTQSPSSLSASVGDRVTITCRASQSIRSHLNWYQQKPGKAPKLLIYGASNLQSGVPSRFSGSGSGTDFTLTISSLQPEDFATYYCQDSSSWPLTFGGGTKVEIK
modifications: Psl0337-Germline VH; Psl0337-Germline VL
On to B4, for which the “OPK activity … (basis of selection)” value in assay [3] is “enhanced OPK activity”.

B5: V2L2-GL: V2L2-germlined mAb (antibody, V domains shown)
VH: EVQLLESGGGLVQPGGSLRLSCAASGFTFSSYAMNWVRQAPGKGLEWVSAITISGITAYYTDSVKGRFTISRDNSKNTLYLQMNSLRAEDTAVYYCAKEEFLPGTHYYYGMDVWGQGTTVTVSS
VL: AIQMTQSPSSLSASVGDRVTITCRASQGIRNDLGWYQQKPGKAPKLVIYSASTLQSGVPSRFSGSGSGTDFTLSISSLQPDDFATYYCLQDYNYPWTFGQGTKVEIK
modifications: V2L2-GL VH; V2L2-MD and V2L2-GL VL
notes: V2L2-germlined mAb
With B5, the “prevention of RBC lysis” value in assay [4] was “demonstrated prevention of RBC lysis”.
